Source: patent US20190040102A1 (CDRD VENTURES, published 2019)
Positions of bridges follow the written chain, without caps; N, C: chain ends. Non-standard residues stand in square brackets, D forms with d. *: point of attachment. dPhe(4-CONH2) = NC(=O)c1ccc(C[C@@H](N)C(=O)O)cc1; Phe(4-Cl) = N[C@@H](Cc1ccc(Cl)cc1)C(=O)O; Nicotinoyl = O=C(c1cccnc1)*; Bz = O=C(c1ccccc1)*

B1: Compound 1: H-Cpa-cyclo[D-Cys-Tyr-D-Cit-Lys-Thr-Cys]-D-Tyr-NH2 (peptide)
peptide: XXYXKTCX
HELM: PEPTIDE1{[N[C@@H](Cc1ccc(Cl)cc1)C(=O)[*:2]].[dC].Y.[NC(=O)NCCC[C@@H](N[*:1])C(=O)[*:2]].K.T.C.[dY].[am]}$PEPTIDE1,PEPTIDE1,2:R3-7:R3$$$V2.0
SMILES: C[C@@H](O)[C@@H]1NC(=O)[C@H](CCCCN)NC(=O)[C@@H](CCCNC(N)=O)NC(=O)[C@H](Cc2ccc(O)cc2)NC(=O)[C@H](NC(=O)[C@@H](N)Cc2ccc(Cl)cc2)CSSC[C@@H](C(=O)N[C@H](Cc2ccc(O)cc2)C(N)=O)NC1=O
B2: Compound 3: H-Cpa-cyclo[DCys-Tyr-D-(Nε-nicotinoyl)Lys-Lys-Thr-Cys]-DTyr-NH2 (peptide)
peptide: H-[Phe(4-Cl)][dC]Y[dK](Nicotinoyl)KTC[dY]-NH2
modifications: disulfide 2-7
SMILES: C[C@@H](O)[C@@H]1NC(=O)[C@H](CCCCN)NC(=O)[C@@H](CCCCNC(=O)c2cccnc2)NC(=O)[C@H](Cc2ccc(O)cc2)NC(=O)[C@H](NC(=O)[C@@H](N)Cc2ccc(Cl)cc2)CSSC[C@@H](C(=O)N[C@H](Cc2ccc(O)cc2)C(N)=O)NC1=O
B3: Compound 8: H-Cpa-cyclo[DCys-Tyr-D-4-(Gly)Aph-Lys-Thr-Cys]-DTyr-NH2 (peptide)
peptide: XXYXKTCX
HELM: PEPTIDE1{[N[C@@H](Cc1ccc(Cl)cc1)C(=O)[*:2]].[dC].Y.[O=C([C@@H](Cc1ccc(N[*:3])cc1)N[*:1])[*:2]].K.T.C.[dY].[am]}|PEPTIDE2{G}$PEPTIDE1,PEPTIDE2,4:R3-1:R2|PEPTIDE1,PEPTIDE1,2:R3-7:R3$$$V2.0
SMILES: C[C@@H](O)[C@@H]1NC(=O)[C@H](CCCCN)NC(=O)[C@@H](Cc2ccc(NC(=O)CN)cc2)NC(=O)[C@H](Cc2ccc(O)cc2)NC(=O)[C@H](NC(=O)[C@@H](N)Cc2ccc(Cl)cc2)CSSC[C@@H](C(=O)N[C@H](Cc2ccc(O)cc2)C(N)=O)NC1=O
B4: Compound 9: H-Cpa-cyclo[DCys-Tyr-D-4-(Gly-Ac)Aph-Lys-Thr-Cys]-DTyr-NH2 (peptide)
peptide: XXYXKTCX
HELM: PEPTIDE1{[N[C@@H](Cc1ccc(Cl)cc1)C(=O)[*:2]].[dC].Y.[O=C([C@@H](Cc1ccc(N[*:3])cc1)N[*:1])[*:2]].K.T.C.[dY].[am]}|PEPTIDE2{[ac].G}$PEPTIDE1,PEPTIDE2,4:R3-2:R2|PEPTIDE1,PEPTIDE1,2:R3-7:R3$$$V2.0
SMILES: CC(=O)NCC(=O)Nc1ccc(C[C@H]2NC(=O)[C@H](Cc3ccc(O)cc3)NC(=O)[C@H](NC(=O)[C@@H](N)Cc3ccc(Cl)cc3)CSSC[C@@H](C(=O)N[C@H](Cc3ccc(O)cc3)C(N)=O)NC(=O)[C@H]([C@@H](C)O)NC(=O)[C@H](CCCCN)NC2=O)cc1
B5: Compound 4: H-Cpa-cyclo[DCys-Tyr-D-(4-carbamoyl)Phe-Lys-Thr-Cys]-DTyr-NH2 (peptide)
peptide: XXYXKTCX
HELM: PEPTIDE1{[N[C@@H](Cc1ccc(Cl)cc1)C(=O)[*:2]].[dC].Y.[NC(=O)c1ccc(C[C@@H](N[*:1])C(=O)[*:2])cc1].K.T.C.[dY].[am]}$PEPTIDE1,PEPTIDE1,2:R3-7:R3$$$V2.0
SMILES: C[C@@H](O)[C@@H]1NC(=O)[C@H](CCCCN)NC(=O)[C@@H](Cc2ccc(C(N)=O)cc2)NC(=O)[C@H](Cc2ccc(O)cc2)NC(=O)[C@H](NC(=O)[C@@H](N)Cc2ccc(Cl)cc2)CSSC[C@@H](C(=O)N[C@H](Cc2ccc(O)cc2)C(N)=O)NC1=O
B6: Compound 50: Ph(CO)NHCH2(CO)-Cpa-cyclo[D-Cys-Tyr-D-Phe(4-carbamoyl)-Lys(Nε-Me)-Thr-Cys]-D-Tyr-NH2 (peptide)
peptide: Bz-G[Phe(4-Cl)][dC]Y[dPhe(4-CONH2)]K(Me)TC[dY]-NH2
modifications: disulfide 3-8
SMILES: CNCCCC[C@@H]1NC(=O)[C@@H](Cc2ccc(C(N)=O)cc2)NC(=O)[C@H](Cc2ccc(O)cc2)NC(=O)[C@H](NC(=O)[C@H](Cc2ccc(Cl)cc2)NC(=O)CNC(=O)c2ccccc2)CSSC[C@@H](C(=O)N[C@H](Cc2ccc(O)cc2)C(N)=O)NC(=O)[C@H]([C@@H](C)O)NC1=O

What was measured:
Assay in all cases: cell-based or functional assay
[1] = biological target: somatostatin receptor SSTR1 (UniProt P30872 1-391)
Chain of somatostatin receptor SSTR1 (P30872 whole entry): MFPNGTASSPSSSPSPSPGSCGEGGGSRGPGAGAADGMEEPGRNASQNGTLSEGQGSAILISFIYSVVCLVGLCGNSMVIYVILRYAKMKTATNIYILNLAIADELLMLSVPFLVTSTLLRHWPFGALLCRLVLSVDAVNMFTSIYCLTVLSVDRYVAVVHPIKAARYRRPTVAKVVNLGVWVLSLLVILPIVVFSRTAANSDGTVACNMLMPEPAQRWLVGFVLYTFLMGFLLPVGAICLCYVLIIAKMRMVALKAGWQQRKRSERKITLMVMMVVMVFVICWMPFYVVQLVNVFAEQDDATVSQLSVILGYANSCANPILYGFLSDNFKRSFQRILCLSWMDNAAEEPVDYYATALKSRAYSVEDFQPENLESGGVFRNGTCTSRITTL

[2] = biological target: somatostatin receptor type 2 (SSTR2) (UniProt P30874 1-369)
Chain of somatostatin receptor type 2 (SSTR2) (P30874 whole entry): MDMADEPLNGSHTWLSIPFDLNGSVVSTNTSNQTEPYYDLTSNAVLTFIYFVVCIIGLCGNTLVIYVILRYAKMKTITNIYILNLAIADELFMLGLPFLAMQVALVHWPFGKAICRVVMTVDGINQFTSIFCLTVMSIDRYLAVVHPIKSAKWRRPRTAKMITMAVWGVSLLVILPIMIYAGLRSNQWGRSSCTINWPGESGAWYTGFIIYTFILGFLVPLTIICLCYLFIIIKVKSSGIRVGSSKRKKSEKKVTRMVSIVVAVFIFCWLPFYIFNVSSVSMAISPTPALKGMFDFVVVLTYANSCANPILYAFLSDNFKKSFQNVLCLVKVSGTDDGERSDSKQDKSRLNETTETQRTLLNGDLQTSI

[3] = biological target: somatostatin receptor SSTR3 (UniProt P32745 1-418)
Chain of somatostatin receptor SSTR3 (P32745 whole entry): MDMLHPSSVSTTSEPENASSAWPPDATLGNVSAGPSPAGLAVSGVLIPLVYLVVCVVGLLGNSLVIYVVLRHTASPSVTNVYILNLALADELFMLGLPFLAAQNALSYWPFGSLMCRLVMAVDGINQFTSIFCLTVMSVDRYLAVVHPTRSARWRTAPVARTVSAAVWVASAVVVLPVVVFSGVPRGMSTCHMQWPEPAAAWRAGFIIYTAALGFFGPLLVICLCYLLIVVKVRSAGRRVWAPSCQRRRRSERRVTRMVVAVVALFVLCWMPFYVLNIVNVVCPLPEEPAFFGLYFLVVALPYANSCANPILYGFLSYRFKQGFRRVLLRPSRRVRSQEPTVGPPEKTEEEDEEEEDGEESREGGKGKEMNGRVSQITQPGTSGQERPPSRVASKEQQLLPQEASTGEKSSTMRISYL

[4] = biological target: somatostatin receptor SSTR4 (UniProt P31391 1-388)
Chain of somatostatin receptor SSTR4 (P31391 whole entry): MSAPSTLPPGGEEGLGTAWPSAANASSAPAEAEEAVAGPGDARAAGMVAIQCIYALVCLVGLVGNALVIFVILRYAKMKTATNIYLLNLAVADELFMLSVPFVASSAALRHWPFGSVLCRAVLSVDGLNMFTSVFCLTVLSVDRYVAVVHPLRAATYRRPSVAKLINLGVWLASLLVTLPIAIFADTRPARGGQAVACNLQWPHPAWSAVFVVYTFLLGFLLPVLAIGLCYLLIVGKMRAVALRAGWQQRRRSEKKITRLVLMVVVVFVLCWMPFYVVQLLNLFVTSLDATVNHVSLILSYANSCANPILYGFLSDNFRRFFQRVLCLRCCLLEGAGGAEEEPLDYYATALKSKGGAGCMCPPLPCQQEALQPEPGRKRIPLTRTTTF

[5] = biological target: somatostatin receptor SSTR5 (UniProt P35346 1-364)
Chain of somatostatin receptor SSTR5 (P35346 whole entry): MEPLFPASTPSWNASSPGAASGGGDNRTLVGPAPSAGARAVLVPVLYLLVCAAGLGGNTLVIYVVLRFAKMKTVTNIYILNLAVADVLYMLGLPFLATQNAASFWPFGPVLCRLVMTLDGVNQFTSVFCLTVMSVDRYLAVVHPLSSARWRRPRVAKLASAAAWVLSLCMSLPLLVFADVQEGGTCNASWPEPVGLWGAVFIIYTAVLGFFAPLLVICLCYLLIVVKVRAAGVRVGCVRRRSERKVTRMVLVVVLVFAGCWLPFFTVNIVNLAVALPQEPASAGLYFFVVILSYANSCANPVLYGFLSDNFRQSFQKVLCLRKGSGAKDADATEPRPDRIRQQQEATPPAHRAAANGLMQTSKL

Binder | IC50 (PathHunter β-Arrestin, antagonist mode) [1] | IC50 (PathHunter β-Arrestin, antagonist mode) [2] | IC50 (PathHunter β-Arrestin, antagonist mode) [3] | IC50 (PathHunter β-Arrestin, antagonist mode) [4] | IC50 (PathHunter β-Arrestin, antagonist mode) [5]
B1 | > 1 µM | 0.034 µM | > 1 µM | > 1 µM | > 1 µM
succinamoyl-[Phe(4-Cl)][dC]Y[dPhe(4-CONH2)]K(Me)TC[dY]-NH2 (disulfide 2-7) [Compound 54: H2N(CO)(CH2)2(CO)-Cpa-cyclo[D-Cys-Tyr-D-Phe(4-carbamoyl)-Lys(Nε-Me)-Thr-Cys]-D-Tyr-NH2] |  | 0.00233 µM |  |  | 
H-[Phe(4-Cl)][dC]Y[dTyr(O-2-(4-morpholinyl)ethyl)]KTC[dY]-NH2 (disulfide 2-7) [Compound 13: H-Cpa-cyclo[DCys-Tyr-D-(2-(4-morpholinyl)ethyl)Tyr-Lys-Thr-Cys]-DTyr-NH2] |  | 0.334 µM | > 1 µM |  | 
H-[Phe(4-Cl)][dC]Y[dPhe(4-aminomethyl)]KTC[dY]-NH2 (disulfide 2-7) [Compound 5: H-Cpa-cyclo[DCys-Tyr-D-(4-aminomethyl)Phe-Lys-Thr-Cys]-DTyr-NH2] |  | 0.213 µM | > 1 µM |  | 
B2 |  | 0.251 µM | > 1 µM |  | 
H-[Phe(4-Cl)][dC]Y[dAph(Ser)]KTC[dY]-NH2 (disulfide 2-7) [Compound 16: H-Cpa-cyclo[DCys-Tyr-D-4-(Ser)Aph-Lys-Thr-Cys]-DTyr-NH2] |  | 0.234 µM | > 1 µM |  | 
B3 |  | 0.084 µM | > 1 µM |  | 
H-[Phe(4-Cl)][dC]Y[dAph(Cit)]KTC[dY]-NH2 (disulfide 2-7) [Compound 22: H-Cpa-cyclo[DCys-Tyr-D-4-(Cit)Aph-Lys-Thr-Cys]-DTyr-NH2] |  | 0.417 µM | > 1 µM |  | 
picolinoyl-[Phe(4-Cl)][dC]Y[dPhe(4-CONH2)]K(Me)TC[dY]-NH2 (disulfide 2-7) [Compound 53: 2-Pyridyl(CO)-Cpa-cyclo[D-Cys-Tyr-D-Phe(4-carbamoyl)-Lys(Nε-Me)-Thr-Cys]-D-Tyr-NH2] |  | 0.00428 µM |  |  | 
H-[Phe(4-Cl)][dC]Y[dHoCit]KTC[dY]-NH2 (disulfide 2-7) [Compound 2: H-Cpa-cyclo[DCys-Tyr-DHoCit-Lys-Thr-Cys]-DTyr-NH2] |  | 0.181 µM | > 1 µM |  | 
B4 |  | 0.104 µM | > 1 µM |  | 
{3,3‑dimethylbutanoyl}-[Phe(4-Cl)][dC]Y[dPhe(4-CONH2)]K(Me)TC[dY]-NH2 (disulfide 2-7) [Compound 52: t-BuCH2(CO)-Cpa-cyclo[D-Cys-Tyr-D-Phe(4-carbamoyl)-Lys(Nε-Me)-Thr-Cys]-D-Tyr-NH2] |  | 0.00173 µM |  |  | 
H-[Phe(4-Cl)][dC]Y[dAph(Gln)]KTC[dY]-NH2 (disulfide 2-7) [Compound 21: H-Cpa-cyclo[DCys-Tyr-D-4-(Gln)Aph-Lys-Thr-Cys]-DTyr-NH2] |  | > 1 µM | > 1 µM |  | 
B5 | > 1 µM | 0.017 µM | > 1 µM | > 1 µM | > 1 µM
B6 |  | 0.00111 µM |  |  | 
H-[Phe(4-Cl)][dC]Y[dPhe(4-acetamidomethyl)]KTC[dY]-NH2 (disulfide 2-7) [Compound 6: H-Cpa-cyclo[DCys-Tyr-D-(4-acetamidomethyl)Phe-Lys-Thr-Cys]-DTyr-NH2] |  | 0.166 µM | > 1 µM |  | 
H-[Phe(4-Cl)][dC]Y[dAph(2-(4-morpholinyl)ethyl)]KTC[dY]-NH2 (disulfide 2-7) [Compound 11: H-Cpa-cyclo[DCys-Tyr-D-4-(2-(4-morpholinyl)ethyl)Aph-Lys-Thr-Cys]-DTyr-NH2] |  | 0.243 µM | > 1 µM |  | 
H-[Phe(4-Cl)][dC]Y[dAph(Val)]KTC[dY]-NH2 (disulfide 2-7) [Compound 23: H-Cpa-cyclo[DCys-Tyr-D-4-(Val)Aph-Lys-Thr-Cys]-DTyr-NH2] |  | 0.458 µM | > 1 µM |  | 
H-[Phe(4-Cl)][dC]Y[dAph(Glu)]KTC[dY]-NH2 (disulfide 2-7) [Compound 20: H-Cpa-cyclo[DCys-Tyr-D-4-(Glu)Aph-Lys-Thr-Cys]-DTyr-NH2] |  | 0.924 µM | > 1 µM |  | 
H-[Phe(4-Cl)][dC]Y[dAph(Lys)]KTC[dY]-NH2 (disulfide 2-7) [Compound 17: H-Cpa-cyclo[DCys-Tyr-D-4-(Lys)Aph-Lys-Thr-Cys]-DTyr-NH2] |  | > 1 µM | > 1 µM |  | 
H-[Phe(4-Cl)][dC]Y[dAph(Asn)]KTC[dY]-NH2 (disulfide 2-7) [Compound 19: H-Cpa-cyclo[DCys-Tyr-D-4-(Asn)Aph-Lys-Thr-Cys]-DTyr-NH2] |  | > 1 µM | > 1 µM |  | 
H-[Phe(4-Cl)][dC]Y[dAph(Asp)]KTC[dY]-NH2 (disulfide 2-7) [Compound 18: H-Cpa-cyclo[DCys-Tyr-D-4-(Asp)Aph-Lys-Thr-Cys]-DTyr-NH2] |  | > 1 µM | > 1 µM |  | 
{2‑(phenylsulfonyl)acetyl}-[Phe(4-Cl)][dC]Y[dPhe(4-CONH2)]K(Me)TC[dY]-NH2 (disulfide 2-7) [Compound 51: PhSO2CH2(CO)-Cpa-cyclo[D-Cys-Tyr-D-Phe(4-carbamoyl)-Lys(Nε-Me)-Thr-Cys]-D-Tyr-NH2] |  | 0.00145 µM |  |  | 
H-[Phe(4-Cl)][dC]Y[dAph(Pro)]KTC[dY]-NH2 (disulfide 2-7) [Compound 10: H-Cpa-cyclo[DCys-Tyr-D-4-(Pro)Aph-Lys-Thr-Cys]-DTyr-NH2] |  | > 1 µM | > 1 µM |  | 
